Laboratory results as given in PMC3462793, “Erioflorin Stabilizes the Tumor Suppressor Pdcd4 by Inhibiting Its Interaction with the E3-ligase β-TrCP1” (PLoS ONE, 2012).

Target: T1, Programmed cell death 4 (Pdcd4), endogenous in HEK293 cells (human (endogenous in HEK293), UniProt Q53EL6 1-469)
T1 sequence (looked up): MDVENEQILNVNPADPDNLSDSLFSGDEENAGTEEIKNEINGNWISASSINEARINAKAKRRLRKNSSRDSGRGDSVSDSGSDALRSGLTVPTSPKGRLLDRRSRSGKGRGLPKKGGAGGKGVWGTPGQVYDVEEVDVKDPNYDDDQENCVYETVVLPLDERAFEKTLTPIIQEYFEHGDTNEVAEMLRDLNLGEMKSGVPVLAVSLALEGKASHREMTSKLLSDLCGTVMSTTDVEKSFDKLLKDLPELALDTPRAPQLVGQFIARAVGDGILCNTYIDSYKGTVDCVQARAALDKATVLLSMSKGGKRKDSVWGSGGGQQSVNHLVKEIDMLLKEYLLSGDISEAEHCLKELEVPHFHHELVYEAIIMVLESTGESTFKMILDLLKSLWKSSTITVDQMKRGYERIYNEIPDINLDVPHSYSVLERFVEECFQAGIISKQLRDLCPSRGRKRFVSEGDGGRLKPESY
Test: cell-based or functional assay

B1: β-transducin repeat-containing protein 1 (β-TrCP1), overexpressed in HEK293 cells (natural protein, UniProt Q9Y297 1-605, looked up)
chain: MDPAEAVLQEKALKFMCSMPRSLWLGCSSLADSMPSLRCLYNPGTGALTAFQNSSEREDCNNGEPPRKIIPEKNSLRQTYNSCARLCLNQETVCLASTAMKTENCVAKTKLANGTSSMIVPKQRKLSASYEKEKELCVKYFEQWSESDQVEFVEHLISQMCHYQHGHINSYLKPMLQRDFITALPARGLDHIAENILSYLDAKSLCAAELVCKEWYRVTSDGMLWKKLIERMVRTDSLWRGLAERRGWGQYLFKNKPPDGNAPPNSFYRALYPKIIQDIETIESNWRCGRHSLQRIHCRSETSKGVYCLQYDDQKIVSGLRDNTIKIWDKNTLECKRILTGHTGSVLCLQYDERVIITGSSDSTVRVWDVNTGEMLNTLIHHCEAVLHLRFNNGMMVTCSKDRSIAVWDMASPTDITLRRVLVGHRAAVNVVDFDDKYIVSASGDRTIKVWNTSTCEFVRTLNGHKRGIACLQYRDRLVVSGSSDNTIRLWDIECGACLRVLEGHEELVRCIRFDNKRIVSGAYDGKIKVWDLVAALDPRAPAGTLCLRTLVEHSGRVFRLQFDEFQIVSSSHDDTILIWDFLNDPAAQAEPPRSPSRTYTYISR
B1 was tested, and the “endogenous Pdcd4 protein level (western densitometry, relative to the DMSO control) in HEK293 cells treated 8 h with TPA (10 nM) and erioflorin (0.625–5 µM)” value was 121 % of DMSO control.
